In PMC4506582, “Plasmodium falciparum coronin organizes arrays of parallel actin filaments potentially guiding directional motility in invasive malaria parasites” (Malaria Journal, 2015):

Experiments:
[1] = molecular target: rabbit skeletal muscle actin (filamentous, Mg-ATP-actin polymerised) (rabbit, UniProt P68135 1-377); experiment: co-sedimentation; conditions: both partners purified
[2] = molecular target: the molecule itself; experiment: SEC; Superdex 200 10/300, 50 mM MES pH 7.0, 100 mM NaCl, 2 mM DTT, 1 mM EDTA; single peak at ~13 mL, ~160 kDa

B1: PfCoronin 1-388 (N-terminal beta-propeller domain of Plasmodium falciparum coronin) (domain or fragment)
chain: MYNVPLIKNLYPDPSNNLYGDLRICSRATETCGIACSAGYIAVPWQVEGGGMIGVIRLENQVRNPPVIKLKSHTSPILDLSFNPCYSEILASCSEDMSIRIWEIRHEDENVNEVKDPLCILNGHKKKVNILSWNPMNYFILSSTSFDSSVNIWDIENEKKAFEINMPKKLSSLQWDIGGNLLSGTCQNKQIHIIDPRKQEICNSFLIHDGGKSTKCIWIDGFGGEDKCILTTGFSKNNMRELKLWSLKNTTSPLTTITLDNAASPLLPHYDESVGMIYLIGKGDGNCRYYQYSQGSIRKVDEYKSCLPFRSFGFLPKRMCDVYKCEIGRVYKNENNTDIRPISFYVPRKNSSIFQEDLYPPIIMRDPERSTNKWIDGINLDIKRVSIK
Kd [1]: 956 nM

B2: His-PfAldolase (Plasmodium falciparum fructose 1,6 bisphosphate aldolase) (enzyme, UniProt Q7KQL9 1-369, looked up)
chain: MAHCTEYMNAPKKLPADVAEELATTAQKLVQAGKGILAADESTQTIKKRFDNIKLENTIENRASYRDLLFGTKGLGKFISGAILFEETLFQKNEAGVPMVNLLHNENIIPGIKVDKGLVNIPCTDEEKSTQGLDGLAERCKEYYKAGARFAKWRTVLVIDTAKGKPTDLSIHETAWGLARYASICQQNRLVPIVEPEILADGPHSIEVCAVVTQKVLSCVFKALQENGVLLEGALLKPNMVTAGYECTAKTTTQDVGFLTVRTLRRTVPPALPGVVFLSGGQSEEEASVNLNSINALGPHPWALTFSYGRALQASVLNTWQGKKENVAKAREVLLQRAEANSLATYGKYKGGAGGENAGASLYEKKYVY
notes: Detected by anti-His Western blot in the sedimentation assay; source: E. coli BL21 (DE3), purified (IMAC, cation exchange, SEC); not shown: His6, N-terminal, kept
stoichiometry N [2]: ~4
